Experimental data taken from PMC8724787.
Read-outs that look alike come from different tables or passages of the source.

Target: DENV1 strain Hawaii envelope (E) protein on virions (Dengue virus 1 (strain Hawaii))
Assay: ELISA; apparent

Row | Binder | Kd [nM] | Kd (Fab) [nM]
1 | C10 intact bivalent IgG1 (human monoclonal antibody EDE1 C10) (protein) chain 1: EVQLVESGAEVKKPGASVKVSCKASGYTFTSYAMHWVRQAPGQRLEWMGWINAGNGNTKYSQKFQDRVTITRDTSASTAYMELSSLRSEDTAIYYCARDKVDDYGDYWFPTLWYFDYWGQGTLVTVSS chain 2: QSALTQPASVSGSPGQSITISCTGTSSDVGGFNYVSWFQQHPGKAPKLMLYDVTSRPSGVSSRFSGSKSGNTASLTISGLQAEDEADYYCSSHTSRGTWVFGGGTKLTVL | 2.6 | –
2 | C10 monovalent antigen binding fragment (Fab) (protein) chain 1: EVQLVESGAEVKKPGASVKVSCKASGYTFTSYAMHWVRQAPGQRLEWMGWINAGNGNTKYSQKFQDRVTITRDTSASTAYMELSSLRSEDTAIYYCARDKVDDYGDYWFPTLWYFDYWGQGTLVTVSS chain 2: QSALTQPASVSGSPGQSITISCTGTSSDVGGFNYVSWFQQHPGKAPKLMLYDVTSRPSGVSSRFSGSKSGNTASLTISGLQAEDEADYYCSSHTSRGTWVFGGGTKLTVL | – | 9.85
